Test results from patent publication US20260242735A1 (UNIVERSIT T BASEL, published 2026).

Experiments:
human CD33 S128A = human CD33 S128A (human, UniProt P20138 18-364); assay: flow cytometry on HEK293-T, alanine scan
Experimental: (§1) An alanine scan on human CD33 was performed to the determine the residues on CD33 that are involved in binding to the antibodies investigated. […] Briefly, a mutation library of CD33 was created by high-throughput, site-directed mutagenesis. Each residue was individually mutated to alanine, with alanine codons mutated to serine. The mutant library was arrayed in 384-well microplates and transiently transfected into HEK293-T. Following transfection, cells were incubated with the indicated antibodies (IgG or Fab) at concentrations pre-determined using an independent immunofluorescence titration curve on wild type CD33. […] Binding of each antibody to each mutant clone was determined in duplicates. For each point, background fluorescence was subtracted from the raw data, which were then normalized to antibody reactivity with wild type CD33.
(§2) Critical residues for antibody binding (outlined in dark grey) were residues whose mutations led to a binding of the test Abs of less than 20%. Additional secondary residues (outlined in light grey) were identified that led to a binding of the test Abs of between 20 and 40% as compared to the wild type CD33.

human CD33 S104A = human CD33 S104A (human, UniProt P20138 18-364); assay: flow cytometry on HEK293-T, alanine scan
Experimental: as §1, §2

human CD33 P132A = human CD33 P132A (human, UniProt P20138 18-364); assay: flow cytometry on HEK293-T, alanine scan
Experimental: as §1, §2

human CD33 S166A = human CD33 S166A (human, UniProt P20138 18-364); assay: flow cytometry on HEK293-T, alanine scan
Experimental: as §1, §2

human CD33 R111A = human CD33 R111A (human, UniProt P20138 18-364); assay: flow cytometry on HEK293-T, alanine scan
Experimental: as §1, §2

human CD33 E121A = human CD33 E121A (human, UniProt P20138 18-364); assay: flow cytometry on HEK293-T, alanine scan
Experimental: as §1, §2

human CD33 R122A = human CD33 R122A (human, UniProt P20138 18-364); assay: flow cytometry on HEK293-T, alanine scan
Experimental: as §1, §2

human CD33 S102A = human CD33 S102A (human, UniProt P20138 18-364); assay: flow cytometry on HEK293-T, alanine scan
Experimental: as §1, §2

human CD33 A108S = human CD33 A108S (human, UniProt P20138 18-364); assay: flow cytometry on HEK293-T, alanine scan
Experimental: as §1, §2

human CD33 S158A = human CD33 S158A (human, UniProt P20138 18-364); assay: flow cytometry on HEK293-T, alanine scan
Experimental: as §1, §2

human CD33 R98A = human CD33 R98A (human, UniProt P20138 18-364); assay: flow cytometry on HEK293-T, alanine scan
Experimental: as §1, §2

human CD33 G114A = human CD33 G114A (human, UniProt P20138 18-364); assay: flow cytometry on HEK293-T, alanine scan
Experimental: as §1, §2

human CD33 S115A = human CD33 S115A (human, UniProt P20138 18-364); assay: flow cytometry on HEK293-T, alanine scan
Experimental: as §1, §2

human CD33 D140A = human CD33 D140A (human, UniProt P20138 18-364); assay: flow cytometry on HEK293-T, alanine scan
Experimental: as §1, §2

human CD33 G151A = human CD33 G151A (human, UniProt P20138 18-364); assay: flow cytometry on HEK293-T, alanine scan
Experimental: as §1, §2

human CD33 L161A = human CD33 L161A (human, UniProt P20138 18-364); assay: flow cytometry on HEK293-T, alanine scan
Experimental: as §1, §2

human CD33 Q133A = human CD33 Q133A (human, UniProt P20138 18-364); assay: flow cytometry on HEK293-T, alanine scan
Experimental: as §1, §2

human CD33 Y116A = human CD33 Y116A (human, UniProt P20138 18-364); assay: flow cytometry on HEK293-T, alanine scan
Experimental: as §1, §2

human CD33 L93A = human CD33 L93A (human, UniProt P20138 18-364); assay: flow cytometry on HEK293-T, alanine scan
Experimental: as §1, §2

human CD33 V136A = human CD33 V136A (human, UniProt P20138 18-364); assay: flow cytometry on HEK293-T, alanine scan
Experimental: as §1, §2

human CD33 K159A = human CD33 K159A (human, UniProt P20138 18-364); assay: flow cytometry on HEK293-T, alanine scan
Experimental: as §1, §2

human CD33 Y127A = human CD33 Y127A (human, UniProt P20138 18-364); assay: flow cytometry on HEK293-T, alanine scan
Experimental: as §1, §2

human CD33 K130A = human CD33 K130A (human, UniProt P20138 18-364); assay: flow cytometry on HEK293-T, alanine scan
Experimental: as §1, §2

human CD33 S164A = human CD33 S164A (human, UniProt P20138 18-364); assay: flow cytometry on HEK293-T, alanine scan
Experimental: as §1, §2

human CD33 P150A = human CD33 P150A (human, UniProt P20138 18-364); assay: flow cytometry on HEK293-T, alanine scan
Experimental: as §1, §2

human CD33 V106A = human CD33 V106A (human, UniProt P20138 18-364); assay: flow cytometry on HEK293-T, alanine scan
Experimental: as §1, §2

human CD33 V165A = human CD33 V165A (human, UniProt P20138 18-364); assay: flow cytometry on HEK293-T, alanine scan
Experimental: as §1, §2

human CD33 L103A = human CD33 L103A (human, UniProt P20138 18-364); assay: flow cytometry on HEK293-T, alanine scan
Experimental: as §1, §2

human CD33 G156A = human CD33 G156A (human, UniProt P20138 18-364); assay: flow cytometry on HEK293-T, alanine scan
Experimental: as §1, §2

human CD33 G94A = human CD33 G94A (human, UniProt P20138 18-364); assay: flow cytometry on HEK293-T, alanine scan
Experimental: as §1, §2

human CD33 A306S = human CD33 A306S (human, UniProt P20138 18-364); assay: alanine scan, flow cytometry, HEK293-T;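 also: antibody binding to each alanine-substituted CD33 mutant expressed transiently in HEK293-T, read as fluorescence minus background, mean of duplicates, relative to wild-type CD33 set as 100%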
human CD33 T191A = human CD33 T191A (human, UniProt P20138 18-364); assay: alanine scan, flow cytometry, HEK293-T;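 also: antibody binding to each alanine-substituted CD33 mutant expressed transiently in HEK293-T, read as fluorescence minus background, mean of duplicates, relative to wild-type CD33 set as 100%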
human CD33 V234A = human CD33 V234A (human, UniProt P20138 18-364); assay: alanine scan, flow cytometry, HEK293-T;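 also: antibody binding to each alanine-substituted CD33 mutant expressed transiently in HEK293-T, read as fluorescence minus background, mean of duplicates, relative to wild-type CD33 set as 100%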
human CD33 C169A = human CD33 C169A (human, UniProt P20138 18-364); assay: alanine scan, flow cytometry, HEK293-T;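 also: antibody binding to each alanine-substituted CD33 mutant expressed transiently in HEK293-T, read as fluorescence minus background, mean of duplicates, relative to wild-type CD33 set as 100%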
human CD33 T240A = human CD33 T240A (human, UniProt P20138 18-364); assay: alanine scan, flow cytometry, HEK293-T
Sequence of human CD33 T240A (P20138 18-364 T240A limits assumed): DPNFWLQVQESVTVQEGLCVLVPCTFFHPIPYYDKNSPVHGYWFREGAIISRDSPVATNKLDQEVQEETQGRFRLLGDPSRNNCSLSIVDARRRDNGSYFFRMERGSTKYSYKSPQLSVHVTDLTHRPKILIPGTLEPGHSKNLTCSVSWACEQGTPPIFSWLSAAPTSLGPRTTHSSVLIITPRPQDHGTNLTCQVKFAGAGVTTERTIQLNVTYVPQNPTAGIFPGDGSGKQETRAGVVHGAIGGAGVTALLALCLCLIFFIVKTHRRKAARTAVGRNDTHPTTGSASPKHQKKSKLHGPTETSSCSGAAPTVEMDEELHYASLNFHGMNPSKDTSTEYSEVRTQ

Sequence of human CD33 V234A (P20138 18-364 V234A limits assumed): as the sequence (P20138 18-364 T240A limits assumed) above, with V217A, A223T counted along it
Sequence of human CD33 T191A (P20138 18-364 T191A limits assumed): as the sequence (P20138 18-364 T240A limits assumed) above, with T174A, A223T counted along it
Sequence of human CD33 A306S (P20138 18-364 A306S limits assumed): as the sequence (P20138 18-364 T240A limits assumed) above, with A223T, A289S counted along it
Sequence of human CD33 C169A (P20138 18-364 C169A limits assumed): as the sequence (P20138 18-364 T240A limits assumed) above, with C152A, A223T counted along it
Sequence of human CD33 Y116A (P20138 18-364 Y116A limits assumed): as the sequence (P20138 18-364 T240A limits assumed) above, with Y99A, A223T counted along it
Sequence of human CD33 P132A (P20138 18-364 P132A limits assumed): as the sequence (P20138 18-364 T240A limits assumed) above, with P115A, A223T counted along it
Sequence of human CD33 S102A (P20138 18-364 S102A limits assumed): as the sequence (P20138 18-364 T240A limits assumed) above, with S85A, A223T counted along it
Sequence of human CD33 V136A (P20138 18-364 V136A limits assumed): as the sequence (P20138 18-364 T240A limits assumed) above, with V119A, A223T counted along it
Sequence of human CD33 K130A (P20138 18-364 K130A limits assumed): as the sequence (P20138 18-364 T240A limits assumed) above, with K113A, A223T counted along it
Sequence of human CD33 K159A (P20138 18-364 K159A limits assumed): as the sequence (P20138 18-364 T240A limits assumed) above, with K142A, A223T counted along it
Sequence of human CD33 V106A (P20138 18-364 V106A limits assumed): as the sequence (P20138 18-364 T240A limits assumed) above, with V89A, A223T counted along it
Sequence of human CD33 Q133A (P20138 18-364 Q133A limits assumed): as the sequence (P20138 18-364 T240A limits assumed) above, with Q116A, A223T counted along it
Sequence of human CD33 S164A (P20138 18-364 S164A limits assumed): as the sequence (P20138 18-364 T240A limits assumed) above, with S147A, A223T counted along it

B1: Refmab #3 (antibody, V domains shown)
VH: QVQLVQSGAEVKKPGSSVKVSCKASGYTFTDYNMHWVRQAPGQGLEWIGYIYPYNGGTGYNQKFKSKATITADESTNTAYMELSSLRSEDTAVYYCARGRPAMDYWGQGTLVTVSS
VL: DIQMTQSPSSLSASVGDRVTITCRASESVDNYGISFMNWFQQKPGKAPKLLIYAASNQGSGVPSRFSGSGSGTDFTLTISSLQPDDFATYYCQQSKEVPWTFGQGTKVEIK
notes: The alanine scan used IgG or Fab
- Mean % WT Binding (human CD33 S128A): 446 % WT binding
- Mean % WT Binding (human CD33 S104A): 102 % WT binding
- Mean % WT Binding (human CD33 P132A): 74.5 % WT binding
- Mean % WT Binding (human CD33 S166A): 131 % WT binding
- Mean % WT Binding (human CD33 R111A): 93.4 % WT binding
- Mean % WT Binding (human CD33 E121A): 132 % WT binding
- Mean % WT Binding (human CD33 R122A): 177 % WT binding
- Mean % WT Binding (human CD33 S102A): 75.9 % WT binding
- Mean % WT Binding (human CD33 A108S): 98 % WT binding
- Mean % WT Binding (human CD33 S158A): 111 % WT binding
- Mean % WT Binding (human CD33 R98A): 102 % WT binding
- Mean % WT Binding (human CD33 G114A): 92.6 % WT binding
- Mean % WT Binding (human CD33 S115A): 77.2 % WT binding
- Mean % WT Binding (human CD33 D140A): 119 % WT binding
- Mean % WT Binding (human CD33 G151A): 108 % WT binding
- Mean % WT Binding (human CD33 L161A): 116 % WT binding
- Mean % WT Binding (human CD33 Q133A): 101 % WT binding
- Mean % WT Binding (human CD33 Y116A): 5.3 % WT binding
- Mean % WT Binding (human CD33 L93A): 120 % WT binding
- Mean % WT Binding (human CD33 V136A): 106 % WT binding
- Mean % WT Binding (human CD33 K159A): 110 % WT binding
- Mean % WT Binding (human CD33 Y127A): 31.9 % WT binding
- Mean % WT Binding (human CD33 K130A): 152 % WT binding
- Mean % WT Binding (human CD33 S164A): 96.3 % WT binding
- Mean % WT Binding (human CD33 P150A): 102 % WT binding
- Mean % WT Binding (human CD33 V106A): 85.7 % WT binding
- Mean % WT Binding (human CD33 V165A): 116 % WT binding
- Mean % WT Binding (human CD33 L103A): 113 % WT binding
- Mean % WT Binding (human CD33 G156A): 116 % WT binding
- Mean % WT Binding (human CD33 G94A): 115 % WT binding

B2: Refmab #3 (antibody, V domains shown)
VH: QVQLVQSGAEVKKPGSSVKVSCKASGYTFTDYNMHWVRQAPGQGLEWIGYIYPYNGGTGYNQKFKSKATITADESTNTAYMELSSLRSEDTAVYYCARGRPAMDYWGQGTLVTVSS
VL: DIQMTQSPSSLSASVGDRVTITCRASESVDNYGISFMNWFQQKPGKAPKLLIYAASNQGSGVPSRFSGSGSGTDFTLTISSLQPDDFATYYCQQSKEVPWTFGQGTKVEIK
notes: as for B1
- Mean % WT Binding (human CD33 A306S): 111 % WT binding

B3: Refmab #3 (antibody, V domains shown)
VH: QVQLVQSGAEVKKPGSSVKVSCKASGYTFTDYNMHWVRQAPGQGLEWIGYIYPYNGGTGYNQKFKSKATITADESTNTAYMELSSLRSEDTAVYYCARGRPAMDYWGQGTLVTVSS
VL: DIQMTQSPSSLSASVGDRVTITCRASESVDNYGISFMNWFQQKPGKAPKLLIYAASNQGSGVPSRFSGSGSGTDFTLTISSLQPDDFATYYCQQSKEVPWTFGQGTKVEIK
notes: In the alanine scan antibodies were used as IgG or Fab
- Mean % WT Binding (human CD33 T191A): 80%
- Mean % WT Binding (human CD33 V234A): 88.7%
- Mean % WT Binding (human CD33 C169A): 115%
- Mean % WT Binding (human CD33 T240A): 97.9%

B4: Refmab #1 (antibody, V domains shown)
VH: EVQLVQSGAEVKKPGSSVKVSCKASGYTITDSNIHWVRQAPGQSLEWIGYIYPYNGGTDYNQKFKNRATLTVDNPTNTAYMELSSLRSEDTAFYYCVNGNPWLAYWGQGTLVTVSS
VL: DIQLTQSPSTLSASVGDRVTITCRASESLDNYGIRFLTWFQQKPGKAPKLLMYAASNQGSGVPSRFSGSGSGTEFTLTISSLQPDDFATYYCQQTKEVPWSFGQGTKVEVK
notes: In the alanine scan antibodies were used as IgG or Fab; also called hP67.6
- Mean % WT Binding (human CD33 T191A): 91.4%
- Mean % WT Binding (human CD33 V234A): 85.8%
- Mean % WT Binding (human CD33 C169A): 75.8%
- Mean % WT Binding (human CD33 T240A): 111%

B5: Refmab #1 (antibody, V domains shown)
VH: EVQLVQSGAEVKKPGSSVKVSCKASGYTITDSNIHWVRQAPGQSLEWIGYIYPYNGGTDYNQKFKNRATLTVDNPTNTAYMELSSLRSEDTAFYYCVNGNPWLAYWGQGTLVTVSS
VL: DIQLTQSPSTLSASVGDRVTITCRASESLDNYGIRFLTWFQQKPGKAPKLLMYAASNQGSGVPSRFSGSGSGTEFTLTISSLQPDDFATYYCQQTKEVPWSFGQGTKVEVK
notes: The alanine scan used IgG or Fab; also called hP67.6
- Mean % WT Binding (human CD33 A306S): 102 % WT binding

B6: Refmab #4 (antibody, V domains shown)
VH: QVQLVQSGAEVKKPGESVKVSCKASGYTFTNYGMNWVKQAPGQGLEWMGWINTYTGEPTYADKFQGRVTMTTDTSTSTAYMEIRNLGGDDTAVYYCARWSWSDGYYVYFDYWGQGTSVTVSS
VL: DIVMTQSPDSLTVSLGERTTINCKSSQSVLDSSTNKNSLAWYQQKPGQPPKLLLSWASTRESGIPDRFSGSGSGTDFTLTIDSPQPEDSATYYCQQSAHFPITFGQGTRLEIK
notes: as for B3
- Mean % WT Binding (human CD33 T191A): 95.1%
- Mean % WT Binding (human CD33 V234A): 107%
- Mean % WT Binding (human CD33 C169A): 69.3%
- Mean % WT Binding (human CD33 T240A): 76.8%

B7: Refmab #4 (antibody, V domains shown)
VH: QVQLVQSGAEVKKPGESVKVSCKASGYTFTNYGMNWVKQAPGQGLEWMGWINTYTGEPTYADKFQGRVTMTTDTSTSTAYMEIRNLGGDDTAVYYCARWSWSDGYYVYFDYWGQGTSVTVSS
VL: DIVMTQSPDSLTVSLGERTTINCKSSQSVLDSSTNKNSLAWYQQKPGQPPKLLLSWASTRESGIPDRFSGSGSGTDFTLTIDSPQPEDSATYYCQQSAHFPITFGQGTRLEIK
notes: as for B1
- Mean % WT Binding (human CD33 A306S): 79.3 % WT binding

B8: Refmab #2 (antibody, V domains shown)
VH: QVQLVQSGAEVKKPGSSVKVSCKASGGTFSDYAISWVRQAPGQGLEWMGRIIPILGVADYAQKFQGRVTITADKSTRTAYMELSSLRSEDTAVYYCARNWADAFDIWGQGTMVTVSS
VL: DIQLTQSPSSLSASVGDRVTITCRASQGISSVLAWYQQKPGKAPKLLIYDASSLESGVPSRFSGSGSGTDFTLTISSLQPEDFATYYCQQFDSSITFGQGTKLEIK
notes: as for B3
- Mean % WT Binding (human CD33 T191A): 114%
- Mean % WT Binding (human CD33 V234A): 117%
- Mean % WT Binding (human CD33 C169A): 106%
- Mean % WT Binding (human CD33 T240A): 111%

B9: Refmab #2 (antibody, V domains shown)
VH: QVQLVQSGAEVKKPGSSVKVSCKASGGTFSDYAISWVRQAPGQGLEWMGRIIPILGVADYAQKFQGRVTITADKSTRTAYMELSSLRSEDTAVYYCARNWADAFDIWGQGTMVTVSS
VL: DIQLTQSPSSLSASVGDRVTITCRASQGISSVLAWYQQKPGKAPKLLIYDASSLESGVPSRFSGSGSGTDFTLTISSLQPEDFATYYCQQFDSSITFGQGTKLEIK
notes: as for B1
- Mean % WT Binding (human CD33 A306S): 85.1 % WT binding
